Measurements as given in patent US20220089647A1 (FUJIFILM, published 2022).
Starred links: 1 amine or outer side, 2 acyl side, 3 side chain; linkers in the order of their positions; H or OH if unused. Positions of bridges follow the written chain, without caps; N, C: chain ends. Non-standard residues stand in square brackets, D forms with d. Primed or numbered codes have the meaning given here. No end group written: not given here. Dab(acetyl)″ = 2-amino-4-(acetylamino)butanoic acid, acetyl CH3 carbon bonded to the S of Hcy (S-CH2-C(=O)-NH-), O=C(C[*:3])NCC[C@H](N[*:1])C(=O)[*:2]; Dab(acetyl) = 2-amino-4-acetylamino-butanoic acid residue (N-γ-acetyl-diaminobutyric acid), CC(=O)NCC[C@H](N[*:1])C(=O)[*:2]; COCH2 = acetyl group that carries the bridge; hCys = N[C@@H](CCS)C(=O)O; Dab = NCC[C@H](N)C(=O)O; Dap = NC[C@H](N)C(=O)O; βAla = NCCC(=O)O

These binders were tested against T1, human integrin αvβ5 (human, UniProt P06756 31-992; P18084 24-719, limits assumed) (assay: SPR, Biacore 3000, peptide immobilised; C = KD more than 100 nM and 200 nM or less).
T1 construct: Heterodimer flowed as analyte at 30, 100, 300 and 1,000 nM in HEPES buffer with 5 mM MgCl2
Experimental: However, only for the cyclic peptides 125, 126, and 127, in which the number of lysine residues having an amino group as the immobilizing functional group was zero, the amount of the sample solution to be supplied to the sensor chip was set to 500 μL instead of 20 μL. Further, 70 μL of the mixed aqueous solution of 0.2 M EDC and 0.04 M NHS was added to another flow channel of the same sensor chip without immobilizing the sample, and then blocking treatment and washing treatment were carried out. Hereinafter, the obtained immobilization-treated sensor chip is referred to as an “immobilization-treated sensor chip A”.
After adding human integrin αvβ5 for 10 minutes at 25° C., which was diluted to 30 nM using a HEPES buffer solution to which magnesium chloride was added to 5 mM, in each flow channel of the immobilization-treated sensor chip A prepared in (1) above, the same HEPES buffer solution (containing 5 mM magnesium chloride) was allowed to flow as a running buffer for 30 minutes, and measurement was carried out with Biacore 3000. Then, a regeneration treatment of removing human integrin αvβ5 was carried out by allowing a 0.5 M EDTA aqueous solution to flow through each flow channel for 10 minutes. Further, the above-described measurement process consisting of adding integrin for 10 minutes, allowing a running buffer to flow for 30 minutes, carrying out measurement with Biacore 3000, and carrying out regeneration treatment with 0.5 M EDTA aqueous solution was carried out in the same manner for 100 nM human integrin αvβ5, 300 nM human integrin αvβ5, and 1,000 nM human integrin αvβ5. Dissociation constant between the cyclic peptide and human integrin αvβ5 was calculated from the difference between the value measured by Biacore 3000 in the flow channel immobilized with the cyclic peptide and the value measured by Biacore 3000 in the flow channel unimmobilized with the cyclic peptide, in a case where each concentration of human integrin αvβ5 was allowed to flow, and the integrin binding property was evaluated according to the following evaluation standards. It is preferable that the evaluation result satisfies the evaluation standard A, B, or C.

T1 sequence (P06756 31-992 limits assumed, chain 1 of 2): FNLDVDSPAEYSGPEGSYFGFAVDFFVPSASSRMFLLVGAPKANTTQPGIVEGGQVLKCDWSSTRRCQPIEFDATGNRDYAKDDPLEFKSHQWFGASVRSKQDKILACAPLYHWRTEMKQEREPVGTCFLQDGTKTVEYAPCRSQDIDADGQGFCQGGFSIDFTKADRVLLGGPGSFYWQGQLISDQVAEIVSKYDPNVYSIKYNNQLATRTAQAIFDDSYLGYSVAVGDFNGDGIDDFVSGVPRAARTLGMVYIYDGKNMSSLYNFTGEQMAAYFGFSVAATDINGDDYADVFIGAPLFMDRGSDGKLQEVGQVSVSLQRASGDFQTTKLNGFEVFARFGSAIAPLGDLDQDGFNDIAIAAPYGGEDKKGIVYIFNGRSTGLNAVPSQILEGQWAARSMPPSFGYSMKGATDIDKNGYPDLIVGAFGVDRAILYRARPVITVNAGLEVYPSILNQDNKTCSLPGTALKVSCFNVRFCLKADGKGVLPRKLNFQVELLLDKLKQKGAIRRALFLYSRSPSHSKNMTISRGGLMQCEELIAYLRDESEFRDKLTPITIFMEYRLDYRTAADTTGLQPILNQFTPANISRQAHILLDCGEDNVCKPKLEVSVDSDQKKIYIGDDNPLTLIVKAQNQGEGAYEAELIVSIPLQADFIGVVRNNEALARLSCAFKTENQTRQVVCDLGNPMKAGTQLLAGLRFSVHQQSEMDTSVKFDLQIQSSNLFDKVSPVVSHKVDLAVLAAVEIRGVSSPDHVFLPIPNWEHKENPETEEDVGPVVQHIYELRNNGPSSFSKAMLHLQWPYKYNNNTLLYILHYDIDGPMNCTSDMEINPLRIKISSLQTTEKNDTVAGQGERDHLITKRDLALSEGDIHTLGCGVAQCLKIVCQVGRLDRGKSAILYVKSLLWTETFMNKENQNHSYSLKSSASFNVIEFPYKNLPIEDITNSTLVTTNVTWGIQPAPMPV
T1 sequence (P18084 24-719 limits assumed, chain 2 of 2): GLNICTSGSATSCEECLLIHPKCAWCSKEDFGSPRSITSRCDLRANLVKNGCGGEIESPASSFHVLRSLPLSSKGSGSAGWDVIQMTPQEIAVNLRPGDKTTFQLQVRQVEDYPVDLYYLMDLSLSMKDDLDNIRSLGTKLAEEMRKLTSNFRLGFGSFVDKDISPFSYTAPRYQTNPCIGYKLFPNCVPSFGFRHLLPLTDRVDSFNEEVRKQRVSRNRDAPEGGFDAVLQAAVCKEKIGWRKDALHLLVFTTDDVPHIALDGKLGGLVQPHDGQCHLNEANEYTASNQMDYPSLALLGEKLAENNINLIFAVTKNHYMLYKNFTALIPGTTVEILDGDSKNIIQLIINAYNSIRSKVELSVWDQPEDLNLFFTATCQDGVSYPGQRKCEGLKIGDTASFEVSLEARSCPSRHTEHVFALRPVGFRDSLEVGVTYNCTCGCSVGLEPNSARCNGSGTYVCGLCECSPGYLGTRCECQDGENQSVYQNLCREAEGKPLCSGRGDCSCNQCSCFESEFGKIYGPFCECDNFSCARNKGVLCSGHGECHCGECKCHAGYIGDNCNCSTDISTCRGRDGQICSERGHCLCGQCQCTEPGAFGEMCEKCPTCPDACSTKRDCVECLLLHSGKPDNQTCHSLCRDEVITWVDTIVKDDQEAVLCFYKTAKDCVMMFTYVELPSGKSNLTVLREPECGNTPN

Binder | dissociation constant (KD)
KKKA[hCys]EPRGDNYD[Dab](COCH2)D (thioether 5-14) [Cyclic peptide 35] | 0.1 to 0.2 µM
KKK[hCys]PRGDNFR[Dab(acetyl)]A (thioether 4-12) [Cyclic peptide 9] | 0.1 to 0.2 µM
KKKA[hCys]EPRGDNYR[Dab(acetyl)″]-NH2 (thioether 5-14; N-terminus assumed; SMILES C[C@H](NC(=O)[C@H](CCCCN)NC(=O)[C@H](CCCCN)NC(=O)[C@@H](N)CCCCN)C(=O)N[C@H]1CCSCC(=O)NCC[C@@H](C(N)=O)NC(=O)[C@H](CCCNC(=N)N)NC(=O)[C@H](Cc2ccc(O)cc2)NC(=O)[C@H](CC(N)=O)NC(=O)[C@H](CC(=O)O)NC(=O)CNC(=O)[C@H](CCCNC(=N)N)NC(=O)[C@@H]2CCCN2C(=O)[C@H](CCC(=O)O)NC1=O) [Cyclic peptide 50] | 0.1 to 0.2 µM
KKK[βAla][hCys]EPRGDNYR[Dab(acetyl)″]-NH2 (thioether 5-14; N-terminus assumed; SMILES N=C(N)NCCC[C@@H]1NC(=O)[C@H](Cc2ccc(O)cc2)NC(=O)[C@H](CC(N)=O)NC(=O)[C@H](CC(=O)O)NC(=O)CNC(=O)[C@H](CCCNC(=N)N)NC(=O)[C@@H]2CCCN2C(=O)[C@H](CCC(=O)O)NC(=O)[C@@H](NC(=O)CCNC(=O)[C@H](CCCCN)NC(=O)[C@H](CCCCN)NC(=O)[C@@H](N)CCCCN)CCSCC(=O)NCC[C@@H](C(N)=O)NC1=O) [Cyclic peptide 51] | 0.1 to 0.2 µM

What follows are binders tested against T1, human integrin αvβ5 (assay: SPR, Biacore 3000, peptide immobilised; B = KD more than 50 nM and 100 nM or less).

Binder | dissociation constant (KD)
KKK[hCys]VPRGDTFT[Dab(acetyl)] (thioether 4-13) [Cyclic peptide 154] | 0.05 to 0.1 µM
KKK[hCys]TPRGDSFA[Dab(acetyl)] (thioether 4-13) [Cyclic peptide 156] | 0.05 to 0.1 µM
KKK[Dap](COCH2)EPRGDNYRC (thioether 4-13) [Cyclic peptide 167] | 0.05 to 0.1 µM
KKKA[hCys]TTRGDSFA[Dab](COCH2)A (thioether 5-14) [Cyclic peptide 161] | 0.05 to 0.1 µM
